Measurements reported in patent publication US20230416345A1, “NEW TYPE II COLLAGEN BINDING PROTEINS” (Navigo Proteins GmbH, priority 2020, published 2023).

Columns and labels:
Type I collagen = Type I collagen (Homo sapiens, UniProt P02452+P08123); test: SPR specificity vs Type I collagen; format: binding
Method: (§1) The purified proteins were immobilized on a CM-5 sensor chip (GE Healthcare) using NHS/EDC after PDEA activation resulting in 110-140 RU with a Biacore 3000 system (GE Healthcare). The chip was equilibrated with SPR running buffer (PBS 0.05% Tween pH 7.3). Upon binding, target analyte was accumulated on the surface increasing the refractive index. This change in the refractive index was measured in real time and plotted as response or resonance units versus time. The analytes were applied to the chip in serial dilutions with a flow rate of 30 μl/min. The association was performed for 120 seconds and the dissociation for 120 seconds. After each run, the chip surface was regenerated with 30 μl regeneration buffer (10 mM glycine pH 2.0) and equilibrated with running buffer.
(§2) Binding studies were carried out by the use of the BIAcore 3000 (GE Healthcare); data evaluation was operated via the BIAevaluation 3.0 software, provided by the manufacturer, using the Langmuir 1:1 model (RI=0). Evaluated dissociation constants (KD) were standardized against the immobilized protein and indicated. Shown is the change in refractive index measured in real time and plotted as response or resonance unit [RU] versus time [sec].

Type III collagen = target: T1, Type III collagen (Homo sapiens, UniProt P02461); test: SPR specificity vs Type III collagen; format: binding
T1 sequence (P02461 154-1221 limits assumed): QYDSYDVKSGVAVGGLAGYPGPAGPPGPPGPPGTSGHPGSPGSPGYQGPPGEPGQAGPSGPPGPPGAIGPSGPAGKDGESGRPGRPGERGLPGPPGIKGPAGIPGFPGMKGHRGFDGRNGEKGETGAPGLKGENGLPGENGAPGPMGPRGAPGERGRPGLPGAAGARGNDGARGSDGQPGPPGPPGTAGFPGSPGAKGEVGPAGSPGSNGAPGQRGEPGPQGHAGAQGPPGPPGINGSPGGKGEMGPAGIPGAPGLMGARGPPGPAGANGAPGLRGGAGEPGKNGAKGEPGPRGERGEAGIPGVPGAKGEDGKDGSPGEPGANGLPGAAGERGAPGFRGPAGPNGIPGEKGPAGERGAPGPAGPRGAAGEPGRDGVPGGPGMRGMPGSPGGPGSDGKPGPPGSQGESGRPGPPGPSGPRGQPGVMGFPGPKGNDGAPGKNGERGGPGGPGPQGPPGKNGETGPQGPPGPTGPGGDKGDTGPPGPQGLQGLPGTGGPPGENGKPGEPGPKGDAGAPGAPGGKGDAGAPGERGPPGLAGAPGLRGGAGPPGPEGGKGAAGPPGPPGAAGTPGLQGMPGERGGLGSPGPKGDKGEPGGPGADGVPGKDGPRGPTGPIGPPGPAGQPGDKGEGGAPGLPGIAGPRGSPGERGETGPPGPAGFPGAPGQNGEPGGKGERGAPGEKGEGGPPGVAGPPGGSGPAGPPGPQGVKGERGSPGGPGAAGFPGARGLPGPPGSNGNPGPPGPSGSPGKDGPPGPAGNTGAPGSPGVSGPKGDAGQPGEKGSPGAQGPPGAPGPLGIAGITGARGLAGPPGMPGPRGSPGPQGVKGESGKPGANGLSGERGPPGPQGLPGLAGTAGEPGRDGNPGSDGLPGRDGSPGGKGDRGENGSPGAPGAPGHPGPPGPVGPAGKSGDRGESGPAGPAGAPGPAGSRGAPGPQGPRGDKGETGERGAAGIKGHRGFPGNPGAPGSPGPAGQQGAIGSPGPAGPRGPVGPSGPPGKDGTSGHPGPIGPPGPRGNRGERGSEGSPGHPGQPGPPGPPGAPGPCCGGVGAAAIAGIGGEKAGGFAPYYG
Method: as §1, §2

BSA = BSA (Bos taurus, UniProt P02769); test: SPR control BSA; format: binding
Chain of BSA (P02769 25-607): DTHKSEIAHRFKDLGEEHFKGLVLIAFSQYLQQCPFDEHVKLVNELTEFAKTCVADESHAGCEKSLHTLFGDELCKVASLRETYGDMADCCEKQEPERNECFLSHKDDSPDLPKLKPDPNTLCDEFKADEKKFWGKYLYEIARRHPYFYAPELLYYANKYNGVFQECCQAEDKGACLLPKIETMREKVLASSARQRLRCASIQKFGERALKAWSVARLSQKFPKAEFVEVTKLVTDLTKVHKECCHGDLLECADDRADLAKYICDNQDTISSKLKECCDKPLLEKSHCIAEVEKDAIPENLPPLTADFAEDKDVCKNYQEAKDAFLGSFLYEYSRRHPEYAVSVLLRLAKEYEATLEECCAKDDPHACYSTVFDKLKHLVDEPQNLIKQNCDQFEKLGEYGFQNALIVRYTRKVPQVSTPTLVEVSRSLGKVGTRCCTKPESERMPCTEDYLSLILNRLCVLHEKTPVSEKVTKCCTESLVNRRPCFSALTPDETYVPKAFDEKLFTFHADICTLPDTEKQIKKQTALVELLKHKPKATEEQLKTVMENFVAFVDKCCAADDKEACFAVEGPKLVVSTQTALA
Method: as §1, §2

[1] = target: extradomain B of fibronectin (Homo sapiens, UniProt P02751); test: SPR control extradomain B of fibronectin; format: binding
Chain of extradomain B of fibronectin (P02751 1271-1359 limits assumed): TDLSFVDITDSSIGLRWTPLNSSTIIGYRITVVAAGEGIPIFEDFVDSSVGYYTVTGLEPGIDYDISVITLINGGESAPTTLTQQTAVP
Method: as §1, §2

[2] = target: T2, recombinant human collagen type II (h Col II) (Homo sapiens, UniProt P02458); test: KD-determination by ELISA vs human collagen type II; format: binding
T2 construct: purchased Chondrex CHX-20051
T2 sequence (P02458 182-1241): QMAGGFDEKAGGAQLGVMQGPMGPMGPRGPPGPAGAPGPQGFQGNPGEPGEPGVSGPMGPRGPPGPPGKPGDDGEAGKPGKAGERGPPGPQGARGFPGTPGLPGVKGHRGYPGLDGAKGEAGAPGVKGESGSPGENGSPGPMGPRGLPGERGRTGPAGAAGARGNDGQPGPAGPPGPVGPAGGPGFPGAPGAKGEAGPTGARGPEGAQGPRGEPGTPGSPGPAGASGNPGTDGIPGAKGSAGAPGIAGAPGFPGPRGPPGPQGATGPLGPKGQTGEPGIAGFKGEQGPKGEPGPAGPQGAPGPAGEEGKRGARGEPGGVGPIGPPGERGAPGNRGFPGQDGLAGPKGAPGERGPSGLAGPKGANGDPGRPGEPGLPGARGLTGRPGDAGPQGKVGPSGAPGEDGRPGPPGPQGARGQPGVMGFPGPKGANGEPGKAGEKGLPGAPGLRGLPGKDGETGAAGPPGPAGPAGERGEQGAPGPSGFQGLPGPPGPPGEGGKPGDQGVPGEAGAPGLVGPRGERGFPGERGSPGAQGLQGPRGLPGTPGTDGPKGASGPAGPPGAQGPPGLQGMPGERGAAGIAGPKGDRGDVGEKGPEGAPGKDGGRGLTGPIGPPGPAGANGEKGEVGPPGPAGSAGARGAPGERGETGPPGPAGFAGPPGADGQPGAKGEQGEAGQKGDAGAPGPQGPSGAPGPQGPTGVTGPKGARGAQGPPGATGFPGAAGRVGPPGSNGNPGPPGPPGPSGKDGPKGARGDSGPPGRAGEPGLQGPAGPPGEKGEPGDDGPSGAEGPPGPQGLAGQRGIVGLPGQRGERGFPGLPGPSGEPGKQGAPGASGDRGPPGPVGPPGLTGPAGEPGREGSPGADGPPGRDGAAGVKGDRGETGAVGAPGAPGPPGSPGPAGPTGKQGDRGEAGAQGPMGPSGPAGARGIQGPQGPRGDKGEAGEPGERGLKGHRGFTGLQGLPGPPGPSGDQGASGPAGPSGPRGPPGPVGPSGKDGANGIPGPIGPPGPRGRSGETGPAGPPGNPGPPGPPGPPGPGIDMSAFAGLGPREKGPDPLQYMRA
Method: (§3) High binding plates (Greiner, 781061) were immobilized with 2.5 μg/ml recombinant human collagen type II (h Col II, Chondrex, CHX-20051), rabbit collagen type II (rbCol II, prepared from rabbit eyes), porcine collagen type II (p Col II, prepared from porcine eyes), human collagen type I, (h Col I, Sigma, C5483-1MG), human collagen type V (h Col V, Abcam, ab7537), human collagen type III (h Col Ill, Abcam, ab7535) and 67B89 (domain of fibronectin, produced in E. coli) respectively over night at 4° C. ELISA-plates were washed 3 times with PBST (PBS+ 0.1% Tween) and blocked with 3% BSA/0.5% Tween/PBS 2 h at RT. After washing with PBST, dilution series of 1.1 μM to 7×10^−4 nM of dimers (CID 211999, CID 212000), dilution series of 100 nM to 7×10^−6 nM of tetramers (CID 212001 and CID 212704) and dilution series of 10 μM to 2 nM of dimer (CID 212705) were incubated on ELISA-plates 1 h at rt. Plates were washed with PBST and incubated with biotinylated anti-StrepTag-ab (Antikörper-online, ABIN1573895) with a dilution of 1:10.000 for 1 h at rt. The binding was visualized with a-rabbit-IgG-HRP (Sigma, A9169) with a dilution of 1:10.000 and as substrate TMB Plus von KEM EN TEC Diagnostic, Kat-Nr. 4395.

[3] = target: T3, human collagen type I (h Col I) (Homo sapiens, UniProt P02452+P08123); test: ELISA specificity vs human collagen type I; format: binding
T3 construct: purchased Sigma C5483-1MG
T3 sequence (P02452 162-1218 limits assumed): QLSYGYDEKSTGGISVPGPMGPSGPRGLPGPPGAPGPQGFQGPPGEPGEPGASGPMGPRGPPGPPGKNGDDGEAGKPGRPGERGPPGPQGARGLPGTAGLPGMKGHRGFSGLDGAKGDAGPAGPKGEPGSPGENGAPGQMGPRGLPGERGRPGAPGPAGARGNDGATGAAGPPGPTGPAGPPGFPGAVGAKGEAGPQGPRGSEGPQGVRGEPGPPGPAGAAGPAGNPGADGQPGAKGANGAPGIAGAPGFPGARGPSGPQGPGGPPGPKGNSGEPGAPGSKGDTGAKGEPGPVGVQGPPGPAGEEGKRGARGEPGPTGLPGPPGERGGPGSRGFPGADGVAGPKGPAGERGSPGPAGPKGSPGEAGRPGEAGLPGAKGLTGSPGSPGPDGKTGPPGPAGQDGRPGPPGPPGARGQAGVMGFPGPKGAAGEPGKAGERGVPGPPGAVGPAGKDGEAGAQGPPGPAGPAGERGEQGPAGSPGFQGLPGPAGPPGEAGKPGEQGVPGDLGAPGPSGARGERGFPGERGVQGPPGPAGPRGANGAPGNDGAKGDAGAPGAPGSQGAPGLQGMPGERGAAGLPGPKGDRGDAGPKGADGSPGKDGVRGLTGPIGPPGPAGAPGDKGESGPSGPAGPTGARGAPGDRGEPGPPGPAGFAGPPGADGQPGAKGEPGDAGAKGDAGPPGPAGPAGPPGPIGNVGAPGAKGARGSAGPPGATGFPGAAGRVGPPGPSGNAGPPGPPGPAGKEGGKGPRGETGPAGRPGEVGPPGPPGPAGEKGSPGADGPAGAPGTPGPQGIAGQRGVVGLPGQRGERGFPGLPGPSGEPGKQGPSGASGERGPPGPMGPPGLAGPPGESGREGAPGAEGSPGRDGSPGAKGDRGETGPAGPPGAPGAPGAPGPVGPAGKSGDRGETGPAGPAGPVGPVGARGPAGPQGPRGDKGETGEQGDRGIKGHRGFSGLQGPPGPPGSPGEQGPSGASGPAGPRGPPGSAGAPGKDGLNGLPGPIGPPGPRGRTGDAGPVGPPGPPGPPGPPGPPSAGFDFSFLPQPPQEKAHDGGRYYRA
T3 sequence (P08123 80-1119 limits assumed): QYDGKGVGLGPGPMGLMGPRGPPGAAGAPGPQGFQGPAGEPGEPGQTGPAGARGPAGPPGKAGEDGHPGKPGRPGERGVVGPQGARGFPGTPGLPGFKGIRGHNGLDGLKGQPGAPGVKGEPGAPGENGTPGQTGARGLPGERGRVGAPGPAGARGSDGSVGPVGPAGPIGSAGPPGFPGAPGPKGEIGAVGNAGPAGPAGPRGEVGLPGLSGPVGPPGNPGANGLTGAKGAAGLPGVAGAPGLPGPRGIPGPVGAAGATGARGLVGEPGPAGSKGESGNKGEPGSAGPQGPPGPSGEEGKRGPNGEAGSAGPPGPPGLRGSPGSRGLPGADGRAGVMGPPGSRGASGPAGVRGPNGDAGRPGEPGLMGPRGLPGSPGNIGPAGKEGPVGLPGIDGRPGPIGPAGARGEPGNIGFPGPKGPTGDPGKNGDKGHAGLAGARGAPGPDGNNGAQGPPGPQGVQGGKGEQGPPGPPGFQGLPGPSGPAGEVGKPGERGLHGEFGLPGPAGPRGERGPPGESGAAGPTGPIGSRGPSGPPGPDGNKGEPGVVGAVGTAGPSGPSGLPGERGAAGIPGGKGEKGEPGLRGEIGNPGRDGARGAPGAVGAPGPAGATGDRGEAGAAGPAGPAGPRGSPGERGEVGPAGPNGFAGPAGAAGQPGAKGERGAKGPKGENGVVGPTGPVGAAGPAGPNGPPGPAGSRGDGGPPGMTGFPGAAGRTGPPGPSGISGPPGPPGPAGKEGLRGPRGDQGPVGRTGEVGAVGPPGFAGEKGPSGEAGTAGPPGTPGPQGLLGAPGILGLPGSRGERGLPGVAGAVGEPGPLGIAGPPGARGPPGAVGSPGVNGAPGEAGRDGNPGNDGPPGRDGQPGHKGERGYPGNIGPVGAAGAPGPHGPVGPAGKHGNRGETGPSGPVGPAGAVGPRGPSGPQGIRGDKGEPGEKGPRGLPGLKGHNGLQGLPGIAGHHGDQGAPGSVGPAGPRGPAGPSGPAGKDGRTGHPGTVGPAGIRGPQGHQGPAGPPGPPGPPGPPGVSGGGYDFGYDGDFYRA
Method: as §3

human collagen type III = target: T4, human collagen type III (Homo sapiens, UniProt P02461); test: ELISA specificity vs human collagen type III; format: binding
T4 construct: purchased Abcam ab7535
T4 sequence (P02461 154-1221 limits assumed): T1 sequence (P02461 154-1221 limits assumed)
Method: as §3

[4] = Soluble expression in Escherichia coli BL21(DE3); format: physicochemical; conditions: expression in E. coli BL21(DE3)
Method: Variants with affinity tag were expressed in Escherichia coli BL21(DE3) using a low copy plasmid system under regulation of a T7 promoter. Proteins were produced in soluble form after induction by lactose included in the medium (autoinduction medium). BL21 (DE3) competent cells were transformed with the expression plasmid, spread onto selective agar plates (kanamycin) and incubated overnight at 37° C. Precultures were inoculated from single colony in 3 ml 2×YT medium supplemented with 50 μg/ml kanamycin and cultured for 6 hours at 37° C. at 200 rpm in a conventional orbital shaker in culture tubes. […] Cultures were transferred to an orbital shaker and incubated at 30° C. and 200 rpm. […] Before the harvest, the OD600 was measured, samples adjusted to 0.6/OD600 were withdrawn, pelleted and frozen at −20° C. […]
Proteins with affinity tag were purified by affinity chromatography and size exclusion. […] Homogenous species of all purified ligands were obtained; no aggregation was detected. Following SOS-PAGE analysis positive fractions were pooled and their protein concentrations were measured. […] Protein concentrations were determined by absorbance measurement at 280 nm using the molar absorbent coefficient. […] Binding of Collagen II was evaluated by SPR measurements using a Biacore 3000 system. […]

Chain of Type I collagen (P02452 162-1218 limits assumed): as the sequence (P02452 162-1218 limits assumed) above
Chain of Type I collagen (P08123 80-1119 limits assumed): as the sequence (P08123 80-1119 limits assumed) above

Row | Binding to Type I collagen (SPR) (Type I collagen) | Binding to Type III collagen (SPR) (Type III collagen) | Binding to control BSA (SPR) (BSA) | Binding to control extradomain B of fibronectin (SPR) [1] | binding vs human type II collagen (ELISA, words) [2] | binding to type I collagen (ELISA) [3] | binding to type III collagen (ELISA) (human collagen type III) | Substance | Solubility Soluble expression [4] [%]
1 | additional binding | additional binding | not to controls | not to controls | specific binding | additionally | additionally | CID 211190: type II collagen binding protein of SEQ ID NO: 1 (monomer) (NAASHDEAQLSALVEIWDLPNLTTRQKQKFIYSLQRDPSVSKEVLGEAQKLNDSQAPK; Col2 binding protein 211190) | 95
2 |  |  |  |  |  |  |  | CID 211261: Type II Collagen binding protein of SEQ ID NO: 2 (monomer, motif 25Q-29Y-33W) (IAAKFDEAQSAADSEILHLPNLTEQQRHYFRRWLSDDPSVSTHILTQAQHLNDDQAPK; Col2 binding protein 211261) | 95
